The supplement of paper PMC7877785
± gives the uncertainty stated by the source.

Assay: self-splicing fitness, log relative to wild type (ln ratio); higher = more splicing; Tetrahymena group I intron in knt gene, E. coli kanamycin selection, DiMSum; sequences stand for … in CUCUCU…GGAGGGAAAAGUUAUCAGGCAUGCACCUGGUAGCUAGUCUUUAAACCAAUAGAUUGCAUCGGUUUAAAAGGCAAGACCGUCAAAUUGCGGGAAAGGGGUCAACAGCCGUUCAGUACCAAGUCUCAGGGGAAACUUUGAGAUGGCCUUGCAAAGGGUAUGGUAAUAAGCUGACGGACAUGGUCCUAACCACGCAGCCAAGUCCUAAGUCAACAGAUCUUCUGUUGAUAUGGAUGCAGUUCACAGACUAAAUGUCGGUCGGGGAAGAUGUAUUCUUCUCAUAAGAUAUAGUCGGACCUCUCCUUAAUGGGAGCUAGCGGAUGAAGUGAUGCAACACUGGAGCCGCUGGGAACUAAUUUGUAUGCGAAAGUAUAUUGAUUAGUUUUGGAGUACUCGUGGUCG
In short: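 Fitness was computed with DiMSum as the error-weighted combination of replicate fold changes, kanamycin versus none, each normalised to wild type. The library randomised all eight intron nucleotides of the P1ex region, with the intron placed in the knt kanamycin-resistance gene on pET-22b(+) in E. coli BL21(DE3). Six replicate transformations were grown overnight at 37°C or 30°C on LB agar with or without 25 μg/mL kanamycin, plus 100 μg/mL carbenicillin, 50 μM IPTG and 0.2% rhamnose. Pooled colonies were amplicon-sequenced on an Illumina HiSeq 2500.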

| Sequence | self-splicing fitness (ln) (30 °C) | self-splicing fitness (ln) (37 °C) |
| --- | --- | --- |
| AAGUAGCAAUAUUACGAGAA | -2.44 ± 0.22 | -2.05 ± 0.44 |
| AAGUAGCAAUAUUACGAUCA | -0.93 ± 0.11 | -0.174 ± 0.11 |
| AAGUAGCAAUAUUACGAUUU | 0.429 ± 0.06 | 0.104 ± 0.075 |
| AAGUAGCAAUAUUACGCAAA | – | -1.34 ± 0.31 |
| AAGUAGCAAUAUUACGCCGU | -1.94 ± 0.19 | -0.462 ± 0.19 |
| AAGUAGCAAUAUUACGCGAA | -2.76 ± 0.23 | -0.182 ± 0.18 |
| AAGUAGCAAUAUUACGCUUC | – | -1.41 ± 0.2 |
| AAGUAGCAAUAUUACGGAAA | -2.49 ± 0.3 | -1.84 ± 0.24 |
| AAGUAGCAAUAUUACGGAUA | -2.1 ± 0.17 | -1.66 ± 0.16 |
| AAGUAGCAAUAUUACGGCCC | -0.413 ± 0.17 | -1.15 ± 0.26 |
| AAGUAGCAAUAUUACGGGGC | -3.29 ± 0.3 | -3.4 ± 0.26 |
| AAGUAGCAAUAUUACGGGGU | -3.03 ± 0.15 | -2.53 ± 0.15 |
| AAGUAGCAAUAUUACGGUCC | -1.32 ± 0.17 | -0.239 ± 0.14 |
| AAGUAGCAAUAUUACGGUCG | -2.14 ± 0.13 | -1.03 ± 0.12 |
| AAGUAGCAAUAUUACGUAGA | -3.01 ± 0.18 | -1.45 ± 0.21 |
| AAGUAGCAAUAUUACGUGCC | -0.879 ± 0.087 | -0.766 ± 0.1 |
| AAGUAGCAAUAUUACGUUAG | -3.51 ± 0.23 | -3 ± 0.34 |
| AAGUAGCAAUAUUACGUUCU | -0.514 ± 0.062 | -0.45 ± 0.09 |
| AAGUAGCAAUAUUACGUUGU | -2.95 ± 0.1 | -2.43 ± 0.13 |
| AAUAAGCAAUAUUACGAAGC | -3.57 ± 0.43 | – |
| AAUAAGCAAUAUUACGAGCA | -1.37 ± 0.2 | -0.258 ± 0.2 |
| AAUAAGCAAUAUUACGAUAG | -3.78 ± 0.32 | -2.13 ± 0.24 |
| AAUAAGCAAUAUUACGAUUU | -0.134 ± 0.064 | -0.252 ± 0.074 |
| AAUAAGCAAUAUUACGCACG | -1.06 ± 0.11 | -0.851 ± 0.14 |
| AAUAAGCAAUAUUACGCAUG | -1.16 ± 0.13 | -0.645 ± 0.12 |

| Sequence | self-splicing fitness (ln) (30 °C) | self-splicing fitness (ln) (37 °C) |
| --- | --- | --- |
| AAUAAGCAAUAUUACGCCAU | -2.76 ± 0.14 | -1.75 ± 0.15 |
| AAUAAGCAAUAUUACGCCCU | -0.352 ± 0.12 | 0.525 ± 0.15 |
| AAUAAGCAAUAUUACGGAGA | -2.61 ± 0.3 | -1.76 ± 0.36 |
| AAUAAGCAAUAUUACGGAUC | -0.855 ± 0.087 | -0.124 ± 0.14 |
| AAUAAGCAAUAUUACGGCCU | -0.0966 ± 0.09 | -0.0762 ± 0.13 |
| AAUAAGCAAUAUUACGGGAG | -2.91 ± 0.19 | -2.14 ± 0.14 |
| AAUAAGCAAUAUUACGGGGU | -3.91 ± 0.31 | -3.11 ± 0.23 |
| AAUAAGCAAUAUUACGGUAC | -2.68 ± 0.21 | -1.79 ± 0.14 |
| AAUAAGCAAUAUUACGGUAG | -3.77 ± 0.24 | -1.95 ± 0.21 |
| AAUAAGCAAUAUUACGGUCU | -0.462 ± 0.055 | 0.0374 ± 0.073 |
| AAUAAGCAAUAUUACGGUUG | -2.86 ± 0.12 | -1.97 ± 0.14 |
| AAUAAGCAAUAUUACGGUUU | -0.628 ± 0.064 | -0.165 ± 0.092 |
| AAUAAGCAAUAUUACGUACA | -0.815 ± 0.1 | -0.842 ± 0.11 |
| AAUAAGCAAUAUUACGUCAG | -3.34 ± 0.18 | -1.82 ± 0.13 |
| AAUAAGCAAUAUUACGUGGC | -2.72 ± 0.22 | -2.82 ± 0.36 |
| AAUAAGCAAUAUUACGUUAA | -2.76 ± 0.19 | -0.928 ± 0.13 |
| AAUAAGCAAUAUUACGUUCG | -1.5 ± 0.08 | -0.605 ± 0.095 |
| AAUAAGCAAUAUUACGUUGU | -3.22 ± 0.14 | -2.51 ± 0.19 |
| AAUAAGCAAUAUUACGUUUU | -1.78 ± 0.076 | -1.55 ± 0.12 |
| AAUCAGCAAUAUUACGAACG | -0.399 ± 0.088 | -0.368 ± 0.1 |
| AAUCAGCAAUAUUACGAAGC | -0.428 ± 0.11 | -0.998 ± 0.14 |
| AAUCAGCAAUAUUACGAAGU | -0.414 ± 0.059 | 0.136 ± 0.084 |
| AAUCAGCAAUAUUACGACAU | 0.114 ± 0.011 | 0.208 ± 0.032 |
| AAUCAGCAAUAUUACGACGC | -0.394 ± 0.098 | -0.936 ± 0.11 |
| AAUCAGCAAUAUUACGAGCA | -0.936 ± 0.14 | -0.0653 ± 0.12 |

| Sequence | self-splicing fitness (ln) (30 °C) | self-splicing fitness (ln) (37 °C) |
| --- | --- | --- |
| AAUCAGCAAUAUUACGAGUU | -0.331 ± 0.049 | 0.000416 ± 0.074 |
| AAUCAGCAAUAUUACGCCUG | -0.906 ± 0.17 | 0.165 ± 0.18 |
| AAUCAGCAAUAUUACGCGGA | -0.694 ± 0.076 | -0.555 ± 0.079 |
| AAUCAGCAAUAUUACGCUAU | -0.347 ± 0.084 | 0.0833 ± 0.12 |
| AAUCAGCAAUAUUACGCUUG | -0.11 ± 0.068 | -0.33 ± 0.084 |
| AAUCAGCAAUAUUACGGACU | -0.329 ± 0.1 | -0.697 ± 0.099 |
| AAUCAGCAAUAUUACGGAGA | -0.814 ± 0.085 | -1.04 ± 0.1 |
| AAUCAGCAAUAUUACGGAGU | -0.488 ± 0.047 | 0.346 ± 0.064 |
| AAUCAGCAAUAUUACGGCCG | -0.87 ± 0.12 | 0.00722 ± 0.18 |
| AAUCAGCAAUAUUACGGCUG | -2.34 ± 0.15 | -1.87 ± 0.2 |
| AAUCAGCAAUAUUACGGGGU | -3.02 ± 0.17 | -1.39 ± 0.12 |
| AAUCAGCAAUAUUACGGUCA | 0.236 ± 0.1 | 0.432 ± 0.12 |
| AAUCAGCAAUAUUACGUAAG | -0.572 ± 0.075 | -0.104 ± 0.1 |
| AAUCAGCAAUAUUACGUACG | -0.91 ± 0.056 | -0.149 ± 0.075 |
| AAUCAGCAAUAUUACGUCGA | -0.548 ± 0.095 | 0.0423 ± 0.1 |
| AAUCAGCAAUAUUACGUCUA | -0.491 ± 0.069 | -0.133 ± 0.076 |
| AAUCAGCAAUAUUACGUUAU | -0.401 ± 0.041 | 0.272 ± 0.062 |
| AAUCAGCAAUAUUACGUUUA | -0.652 ± 0.045 | -0.106 ± 0.06 |
| AAUGAGCAAUAUUACGAAAU | -2.14 ± 0.28 | -1.36 ± 0.34 |
| AAUGAGCAAUAUUACGAAGC | -3.08 ± 0.35 | -1.89 ± 0.43 |
| AAUGAGCAAUAUUACGAUGC | -2.44 ± 0.21 | – |
| AAUGAGCAAUAUUACGCCCU | -1.32 ± 0.12 | -1.16 ± 0.17 |
| AAUGAGCAAUAUUACGCGAU | -3.63 ± 0.41 | -0.995 ± 0.22 |
| AAUGAGCAAUAUUACGCGGC | -2.15 ± 0.19 | -2.11 ± 0.24 |
| AAUGAGCAAUAUUACGCGGG | -3.11 ± 0.3 | -2.57 ± 0.25 |

| Sequence | self-splicing fitness (ln) (30 °C) | self-splicing fitness (ln) (37 °C) |
| --- | --- | --- |
| AAUGAGCAAUAUUACGCUAA | -3.1 ± 0.36 | -1.9 ± 0.2 |
| AAUGAGCAAUAUUACGCUCG | -2.31 ± 0.25 | -0.585 ± 0.18 |
| AAUGAGCAAUAUUACGCUGU | -1.84 ± 0.34 | -2.21 ± 0.4 |
| AAUGAGCAAUAUUACGCUUC | – | -1.71 ± 0.23 |
| AAUGAGCAAUAUUACGGAAA | -2.99 ± 0.48 | -1.86 ± 0.31 |
| AAUGAGCAAUAUUACGGACG | -2.44 ± 0.2 | – |
| AAUGAGCAAUAUUACGGAUA | -1.86 ± 0.27 | -1.8 ± 0.37 |
| AAUGAGCAAUAUUACGGAUC | -2.24 ± 0.3 | -0.974 ± 0.3 |
| AAUGAGCAAUAUUACGGCCA | – | 0.411 ± 0.39 |
| AAUGAGCAAUAUUACGGCCU | -1.17 ± 0.17 | -1.47 ± 0.21 |
| AAUGAGCAAUAUUACGGCGC | -1.82 ± 0.089 | -1.09 ± 0.11 |
| AAUGAGCAAUAUUACGGGUC | -2.57 ± 0.37 | – |
| AAUGAGCAAUAUUACGGUCG | -2.26 ± 0.14 | -1.62 ± 0.2 |
| AAUGAGCAAUAUUACGUACG | -3 ± 0.26 | -2.32 ± 0.24 |
| AAUGAGCAAUAUUACGUCCA | -2.41 ± 0.19 | -2.27 ± 0.3 |
| AAUGAGCAAUAUUACGUUAG | -3.2 ± 0.21 | -2.3 ± 0.25 |
| AAUUAGCAAUAUUACGAACU | 0.296 ± 0.1 | 0.321 ± 0.14 |
| AAUUAGCAAUAUUACGACGG | -0.969 ± 0.14 | -0.972 ± 0.25 |
| AAUUAGCAAUAUUACGAUAA | -0.869 ± 0.098 | -0.069 ± 0.14 |
| AAUUAGCAAUAUUACGAUGG | -3.31 ± 0.24 | -0.247 ± 0.17 |
| AAUUAGCAAUAUUACGCACC | -0.701 ± 0.15 | 0.362 ± 0.17 |
| AAUUAGCAAUAUUACGCACU | -0.0585 ± 0.12 | -0.106 ± 0.15 |
